{"source": "patent US6420345", "about": "(dated 2002)", "assay_in_all_cases": "in vitro kinase assay", "key": {"[1]": {"molecular_target": "CDK2/cyclin E complex (UniProt P24941 1-298; P24864 16-410)"}, "[2]": {"molecular_target": "CDC2/cyclin B complex (UniProt P06493 1-297; P14635 1-433)", "sequence (P06493 whole entry, chain 1 of 2)": "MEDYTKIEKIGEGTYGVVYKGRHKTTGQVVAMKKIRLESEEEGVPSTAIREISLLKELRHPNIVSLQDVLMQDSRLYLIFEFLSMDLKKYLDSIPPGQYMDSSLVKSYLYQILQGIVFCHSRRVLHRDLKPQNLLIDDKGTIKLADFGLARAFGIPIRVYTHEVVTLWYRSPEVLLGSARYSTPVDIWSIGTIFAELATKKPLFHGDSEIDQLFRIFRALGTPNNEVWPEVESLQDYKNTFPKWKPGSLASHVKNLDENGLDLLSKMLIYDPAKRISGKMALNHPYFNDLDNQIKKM", "sequence (P14635 whole entry, chain 2 of 2)": "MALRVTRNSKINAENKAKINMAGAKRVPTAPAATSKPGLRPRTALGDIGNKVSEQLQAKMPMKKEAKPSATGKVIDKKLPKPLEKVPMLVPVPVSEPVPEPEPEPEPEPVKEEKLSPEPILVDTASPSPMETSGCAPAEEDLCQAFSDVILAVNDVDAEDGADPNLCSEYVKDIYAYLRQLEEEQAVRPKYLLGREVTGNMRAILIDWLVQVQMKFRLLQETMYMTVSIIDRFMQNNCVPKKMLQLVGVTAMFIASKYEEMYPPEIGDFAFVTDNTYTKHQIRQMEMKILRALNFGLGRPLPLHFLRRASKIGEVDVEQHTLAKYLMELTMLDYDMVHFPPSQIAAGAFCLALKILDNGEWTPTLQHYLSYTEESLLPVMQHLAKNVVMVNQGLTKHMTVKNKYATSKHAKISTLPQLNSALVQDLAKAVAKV"}, "[3]": {"molecular_target": "CDK4/cyclin D1 complex (UniProt P11802 1-303; P24385 1-295)", "sequence (P11802 whole entry, chain 1 of 2)": "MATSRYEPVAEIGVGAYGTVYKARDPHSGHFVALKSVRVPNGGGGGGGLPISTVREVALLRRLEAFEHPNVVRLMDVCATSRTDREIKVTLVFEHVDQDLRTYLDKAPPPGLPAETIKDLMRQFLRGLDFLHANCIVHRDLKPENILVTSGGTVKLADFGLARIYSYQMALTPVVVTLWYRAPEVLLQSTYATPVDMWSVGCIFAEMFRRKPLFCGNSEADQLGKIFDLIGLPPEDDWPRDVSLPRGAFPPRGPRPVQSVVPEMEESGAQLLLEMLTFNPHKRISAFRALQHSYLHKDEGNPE", "sequence (P24385 whole entry, chain 2 of 2)": "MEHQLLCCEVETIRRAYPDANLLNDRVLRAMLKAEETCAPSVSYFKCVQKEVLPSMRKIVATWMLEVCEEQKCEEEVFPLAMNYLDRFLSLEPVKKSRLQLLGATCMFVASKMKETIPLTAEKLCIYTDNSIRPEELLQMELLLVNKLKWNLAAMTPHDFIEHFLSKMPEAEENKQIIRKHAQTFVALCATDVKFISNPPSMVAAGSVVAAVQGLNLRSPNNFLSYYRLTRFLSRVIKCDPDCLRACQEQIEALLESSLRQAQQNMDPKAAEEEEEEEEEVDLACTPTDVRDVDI"}}}
{"binder": "human p16 (other) MEPAAGSSMEPSADWLATAAARGRVEEVRALLEAGALPNAPNSYGRRPIQVMMMGSARVAELLLLHGAEPNCADPATLTRPVHDAAREGFLDTLVVLHRAGARLDVRDAWGRLPVDLAEELGHRDVARYLRAAAGGTRGSNHARIDAAEGPSDIPD", "values": [{"measurement": "IC50", "setting": "[1]", "value": "> 1000", "unit": "nM"}, {"measurement": "IC50", "setting": "[2]", "value": "> 1000", "unit": "nM"}, {"measurement": "IC50", "setting": "[3]", "value": 100, "unit": "nM"}]}
{"binder": "W10 (other) MGYPYDVPDYAKPSACRNLFGPVDHEELTRDLEKHCRDMEEASQRKWNFDFQNHKPLEGKYEWQEVEKGSLPEFYYRPPRGGGGSGGGGSGGGGSVEDPAAGSSMEPSADWLATAAARGRVEEVRALLEAGALPNAPNSYGRRPIQVMMMGSARVAELLLLHGAEPNCADPATLTRPVHDAAREGFLDTLVVLHRAGARLDVRDAWGRLPVDLAEELGHRDVARYLRAAAGGTRGSNHARIDAAEGPSDIPD", "values": [{"measurement": "IC50", "setting": "[1]", "value": 3, "unit": "nM"}, {"measurement": "IC50", "setting": "[2]", "value": 17, "unit": "nM"}, {"measurement": "IC50", "setting": "[3]", "value": 38, "unit": "nM"}]}
{"binder": "W9 (other) MGYPYDVPDYAKPSACRNLFGPVDHEELTRDLEKHCRDMEEASQRKWNFDFQNHKPLEGKYEWQEVEKGSLPEFYYRPPRVEDPAAGSSMEPSADWLATAAARGRVEEVRALLEAGALPNAPNSYGRRPIQVMMMGSARVAELLLLHGAEPNCADPATLTRPVHDAAREGFLDTLVVLHRAGARLDVRDAWGRLPVDLAEELGHRDVARYLRAAAGGTRGSNHARIDAAEGPSDIPD", "values": [{"measurement": "IC50", "setting": "[1]", "value": 3.5, "unit": "nM"}, {"measurement": "IC50", "setting": "[2]", "value": 18, "unit": "nM"}, {"measurement": "IC50", "setting": "[3]", "value": 47, "unit": "nM"}]}
